Experimental findings from patent US20170355766A1 are described below.

Holding throughout (experiment): SPR (Biacore)
The target of assay [1] is human V158 FcγRIIIa receptor protein (6xHis and GST tags) (human) (UniProt P08637).
In the next assay the target is FcγRIIIaF (human) (UniProt P08637).
Assay [2] concerns the target human FcγRIIb receptor protein (R&D Systems) (human) (UniProt P31994).
Another assay deals with FcγRIIaR (human) (UniProt P12318).
The target in assay [3] is human H131 FcγRIIa receptor protein (6xHis and GST tags) (human) (UniProt P12318).
Sequence of human H131 FcγRIIa receptor protein (6xHis and GST tags) (human) (P12318 34-217 limits assumed): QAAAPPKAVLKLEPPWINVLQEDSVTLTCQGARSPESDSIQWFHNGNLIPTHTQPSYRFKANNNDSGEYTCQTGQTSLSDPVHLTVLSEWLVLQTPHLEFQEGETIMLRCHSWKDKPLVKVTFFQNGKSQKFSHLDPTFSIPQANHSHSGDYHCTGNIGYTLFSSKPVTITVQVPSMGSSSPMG
The target of assay [4] is human FcγRI receptor protein (R&D Systems) (human) (UniProt P12314).
Sequence of human FcγRI receptor protein (R&D Systems) (human) (P12314 16-288 limits assumed): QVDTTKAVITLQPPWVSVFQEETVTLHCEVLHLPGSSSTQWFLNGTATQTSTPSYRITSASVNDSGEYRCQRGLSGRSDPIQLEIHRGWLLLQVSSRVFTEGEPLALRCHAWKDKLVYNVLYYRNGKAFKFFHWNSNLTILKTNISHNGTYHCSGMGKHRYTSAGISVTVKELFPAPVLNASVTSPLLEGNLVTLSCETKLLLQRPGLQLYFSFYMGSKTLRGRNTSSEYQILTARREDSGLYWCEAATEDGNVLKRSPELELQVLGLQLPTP

Sequence of human V158 FcγRIIIa receptor protein (6xHis and GST tags) (human) (P08637 17-208 F176V limits assumed): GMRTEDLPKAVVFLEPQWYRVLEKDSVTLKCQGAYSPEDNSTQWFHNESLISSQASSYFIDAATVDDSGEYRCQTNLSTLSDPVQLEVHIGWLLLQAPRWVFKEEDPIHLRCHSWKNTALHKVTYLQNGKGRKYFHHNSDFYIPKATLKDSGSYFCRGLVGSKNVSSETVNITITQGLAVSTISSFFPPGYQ
Sequence of FcγRIIaR (human) (P12318 34-217 H167R limits assumed): as the sequence (P12318 34-217 limits assumed) above, with H134R counted along it
Sequence of human FcγRIIb receptor protein (R&D Systems) (human) (P31994 46-217 limits assumed): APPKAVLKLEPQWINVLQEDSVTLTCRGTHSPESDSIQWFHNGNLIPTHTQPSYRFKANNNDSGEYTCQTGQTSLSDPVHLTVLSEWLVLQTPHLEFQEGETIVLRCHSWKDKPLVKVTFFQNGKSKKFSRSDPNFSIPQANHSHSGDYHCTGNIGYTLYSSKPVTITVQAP
Sequence of FcγRIIIaF (human) (P08637 17-208 limits assumed): as the sequence (P08637 17-208 F176V limits assumed) above, with V160F counted along it

S267E/H268E/L328F (antibody) came in with a Fold FcγRIIIaV in assay [1] of 0.092 fold.

S267E/A327D (antibody) came in with a Fold FcγRIIIaV in assay [1] of 0.00199 fold. On the same count and under the same terms, as for G236S (antibody), the figure is 0.00367 fold. Consider “anti-CD19 WT IgG1 antibody (HuAM4G7 Fv, native human IgG1 Fc)”, for which the Fold FcγRIIIaF in the assay with FcγRIIIaF (human) was determined as 1 fold. L235S (antibody) displayed a Fold FcγRIIb in assay [2] of 0.0147 fold. Besides, the Fold FcγRIIaR in the assay with FcγRIIaR (human) worked out at 0.00859 fold. In assay [2], G236R (antibody) came in with a Fold FcγRIIb of 0.0147 fold. Moreover, the Fold FcγRIIaR with FcγRIIaR (human) was found to be 0.00859 fold. In the same order, the values of G236F (antibody) are 0.0147 fold and 0.00859 fold. G236V (antibody) yielded a Fold FcγRIIb in assay [2] of 0.0147 fold.

G237E (antibody) yielded a Fold FcγRIIb in assay [2] of 0.0147 fold. The same substance showed a Fold FcγRIIaR with FcγRIIaR (human) of 0.00859 fold. In the same order, the values of G237P (antibody) are 0.0147 fold and 0.00859 fold.

In assay [2], L234K (antibody) showed a Fold FcγRIIb of 0.0147 fold. Also, in the assay with FcγRIIaR (human), the Fold FcγRIIaR stood at 0.00859 fold. The matching figures for G237K (antibody): 0.0147 fold and 0.00859 fold.

Take L235P (antibody): the Fold FcγRIIb in assay [2] came to 0.00585 fold. In turn, S267E/A327E (antibody) gave a Fold FcγRIIIaV in assay [1] of 0.00894 fold. For G236K (antibody), the Fold FcγRIIb in assay [2] was determined as 0.0147 fold. The same substance gave a Fold FcγRIIaR in the assay with FcγRIIaR (human) of 0.00859 fold. Substance “anti-CD19 IgG1/2 ELLGG antibody with S267E/L328F” returned a Fold FcγRIIaH in assay [3] of 0.993 fold. The substance further came in with a Fold FcγRIIb in assay [2] of 221 fold. The same substance had a Fold FcγRI in assay [4] of 2.35 fold. This substance returned a Fold FcγRIIaR with FcγRIIaR (human) of 269 fold. In assay [2], G236T (antibody) had a Fold FcγRIIb of 0.00225 fold. For the substance L235N (antibody), the Fold FcγRIIb in assay [2] was 0.147 fold.
